Paper PMC3751045

Legend:
Assay in all cases: purified protein
Settings in all cases: 160 μM NADPH, pH 6.5 phosphate, 40°C, GST fusion
purified protein [1] = substrate: CC(=O)C=O
purified protein [2] = substrate: O=CC=O
purified protein [3] = substrate: O=C[C@@H](O)CO
purified protein [4] = substrate: O=C[C@@H](O)[C@H](O)CO

B1: Err1 from T. reesei (GLD1) (Trichoderma reesei) (protein)
chain: MSSGRTVTLNTGYKIPQIGYGTWQAAPGEVGAGVFEALKVGYRHLDLAKVYGNQKEVGEGIKKALAEVPGLKREDIFITSKLWNNSHKPEDVEPALDDTLAELGLDYLDLYLIHWPVAFAPGADLFPKSEDGSEVQLNQNVSIVQTWKAMTELPKSKVRSVGVSNFTIEHLDAVIEATGVVPAVNQIERHPRLPNQPLIDYCAKKGIIITAYSAFGNNTKGLPLLVSSDEVKAVADNLSKKQGKTVTPAQVILAWSQIGGHTVIPKSVTKARIAENFQEVELDDEAIAALNKLGEKPQRFNIPYTYKPRWNINLFNTEEEKAAAHTAVIKL
B1 gave a Km (purified protein [1]) of 131.86 ± 1.84 µM, a kcat (purified protein [1]) of 72.6 s⁻¹ and a kcat/Km (purified protein [1]) of 550000 M⁻¹ s⁻¹. It also gave a Km (purified protein [2]) of 102.74 ± 9.76 µM, a kcat (purified protein [2]) of 18.8 s⁻¹ and a kcat/Km (purified protein [2]) of 183000 M⁻¹ s⁻¹. The Km (purified protein [3]) was 158.04 ± 5.00 µM, the kcat (purified protein [3]) was 47.9 s⁻¹ and the kcat/Km (purified protein [3]) was 303000 M⁻¹ s⁻¹. The Km (purified protein [4]) was 94.07 ± 2.46 µM, the kcat (purified protein [4]) was 29 s⁻¹ and the kcat/Km (purified protein [4]) was 309000 M⁻¹ s⁻¹.
